Experimental data from US20070190574A1, “Diagnostic method for identifying carriers of the Marburg I variant of factor VII-activating protease (FSAP) on the basis of differential modulation of FSAP activity” (DADE BEHRING MARBURG GmbH, priority 2005, published 2007).
Values joined by “and” are separate entries in the source; they are usually repeats but may differ in a detail not shown here. Identical values can stand only once.

How the values were obtained:
Type in all cases: biochemical
FSAP wild type [1] = target: T1, FSAP wild type (Homo sapiens, UniProt Q14520); assay: Prourokinase-activating activity of FSAP with and without aprotinin (S-2444), wild-type plasma samples
T1 construct: found for a plasma sample of a non-carrier (wild type); from tissue
Method: (§1) An anti-FSAP antibody produced via the hybridoma cell line DSM ACC2453 was used as solid phase-associated binding partner having affinity for FSAP. Polystyrene microtiter plates (MTPs) were used as solid phase for carrying out the heterogeneous detection method. Anti-FSAP antibodies in 50 mM NaHCO3, pH 8.2, were associated onto the polystyrene solid phase with a coating volume of 120 μl per well of the MTP and a coating concentration of 20 μg of antibody per ml at room temperature overnight. Unbound antibodies were removed by washing three times with 50 mM sodium phosphate-buffered isotonic NaCl solution, 0.02% Tween® 20, pH 6.5.
(§2) In each case 100 μl of a plasma sample to be determined were pipetted in a dilution of 1:80 in sample buffer (20 mM sodium citrate, pH 6.0, with 150 mM NaCl, 100 mM L-arginine monohydrochloride, 1% bovine serum albumin, 0.1% Tweene® 80, 100 I.U. of heparin/ml) into the wells. After incubation at +37° C. for one hour, unbound constituents were removed by washing three times with 50 mM sodium phosphate-buffered isotonic NaCl solution, 0.02% Tweene® 20, pH 6.5.
(§3) The change in absorption (OD) of the reaction mixtures was followed at a wavelength of 405 nm. A differentiation between carriers and non-carriers of the FSAP MR I variant is possible through the formation of a quotient between vmax of the reaction kinetics of a sample without added aprotinin (vmax0) and with added aprotinin (vmax aprotinin). The following applies thereto: • FSAP wild type vmax0/FSAP wild type vmax aprotinin>FSAP MR I vmax0/FSAP MR I vmax aprotinin.
(§4) The maximum slope of the time-conversion plots was determined by linear regression in a sufficiently linear region of the time-conversion plot and afforded the maximum reaction rate vmax of a reaction in mOD/min.

FSAP MR I variant [2] = target: T2, FSAP MR I variant (Homo sapiens, UniProt Q14520, G534E); assay: Prourokinase-activating activity of FSAP with and without aprotinin (S-2444), MR I carrier plasma samples
T2 construct: found for a plasma sample of a heterozygous carrier of the MR I polymorphism; from tissue
Method: as §1, §2, §3, §4

FSAP wild type [3] = target: T1, FSAP wild type; assay: Amidolytic activity of FSAP for S-2288 with and without aprotinin, wild-type plasma samples
Method: (§5) The microtiter plates used were the same as described in example 1. In each case 100 μl of a plasma sample to be determined were pipetted in a dilution of 1:50 in sample buffer (see example 1) into the wells. After incubation at +37° C. for one hour, unbound constituents were removed by washing three times with 50 mM sodium phosphate-buffered isotonic NaCl solution, 0.02% Tweene® 20, pH 6.5.
(§6) In order to reduce evaporation effects during the relatively long incubation time in the MTP, a layer of mineral oil was put on top.
(§7) The change in absorption (OD) of the reaction mixtures was followed at a wavelength of 405 nm, and the maximum reaction rate vmax was determined (see example 1). Differentiation between carriers and non-carriers of the FSAP MR I variant is possible through the formation of a ratio (quotient) between vmax of the reaction kinetics of a sample without added aprotinin (vmax0) and with added aprotinin (vmax aprotinin). The following applies thereto: • FSAP wild type vmax0/FSAP wild type vmax aprotinin>FSAP MR I vmax0/FSAP MR I vmax aprotinin.

FSAP MR I variant [4] = target: T2, FSAP MR I variant; assay: Amidolytic activity of FSAP for S-2288 with and without aprotinin, MR I carrier plasma samples
Method: as §5, §6, §7

FSAP wild type [5] = target: T1, FSAP wild type; assay: Change in amidolytic activity of FSAP (S-2288) on addition of activity modulator during the reaction, wild-type sample
Method: (§8) The microtiter plates used were the same as described in example 1. In each case 100 μl of a plasma sample to be determined were pipetted in a dilution of 1:15 in sample buffer (see example 1) into the wells. After incubation at +37° C. for one hour, unbound constituents were removed by washing three times as in example 1.
(§9) To determine the amidolytic activity of FSAP, at time t0 in each case 80 μl of the chromogenic substrate S-2288 (1.5 mmol/L; Chromogenix Instrumentation Laboratory S.p.A., Milano, Italy) in a 50:50 mixture of test buffer I and test buffer II (see example 1for test buffer I and 11) were put into the MTP wells and incubated at +37° C. in a photometer. After about 60 minutes, aprotinin was added in a final concentration of 2.95 KIU/ml or the respective monoclonal antibody (MAb) was added in a final concentration of about 60 μg/ml per reaction mixture. The change in absorption of the reaction mixtures was followed at a wavelength of 405 nm, and the maximum reaction rate vmax was determined (see example 1). In order to reduce evaporation effects during the relatively long incubation time, a layer of mineral oil was put on top.
Differentiation between carriers and non-carriers of the FSAP MR I variant is possible through forming a ratio, for example the quotient of the maximum reaction rate before addition of the differential activity modulator (vmax) and the maximum reaction rate after addition of the differential activity modulator (vmax aprotinin).
Three independent measurements were carried out on the sample of the non-carrier of the FSAP MR I variant (wild-type sample; WT). Six independent measurements were carried out on the sample of the heterozygous carrier of the FSAP MR I variant (MR I). The averages (Av.) of vmax/vmax activity modulator (vmax/vmaxA) and the standard deviations relating to the population (SD) were calculated. The negative control, i.e. addition of a corresponding volume of test buffer I and test buffer II in the ratio 50:50 without activity modulator afforded an Av. vmax/vmaxA of 0.81 +/− 0.12. […]

FSAP MR I variant [6] = target: T2, FSAP MR I variant; assay: Change in amidolytic activity of FSAP (S-2288) on addition of activity modulator during the reaction, MR I sample; conditions: vmax before/after modulator added at about 60 min; aprotinin 2.95 KIU/ml, MAb about 60 μg/ml; six measurements; negative control 0.81
Method: as §8
as §9, with “In order to reduce evaporation effects during the relatively long incubation time, a layer of mineral oil was put on top.” left out
Three independent measurements were carried out on the sample of the non-carrier of the FSAP MR I variant (wild-type sample; WT). […] The averages (Av.) of vmax/vmax activity modulator (vmax/vmaxA) and the standard deviations relating to the population (SD) were calculated. […]

[7] = average over WT samples, 0.055 KIU/ml aprotinin
[8] = without vs 0.055 KIU/ml aprotinin, WT samples, one value per sample
[9] = average over MR I samples, 0.055 KIU/ml aprotinin
[10] = without vs 0.055 KIU/ml aprotinin, MR I samples, one value per sample

T1 sequence (Q14520 24-560): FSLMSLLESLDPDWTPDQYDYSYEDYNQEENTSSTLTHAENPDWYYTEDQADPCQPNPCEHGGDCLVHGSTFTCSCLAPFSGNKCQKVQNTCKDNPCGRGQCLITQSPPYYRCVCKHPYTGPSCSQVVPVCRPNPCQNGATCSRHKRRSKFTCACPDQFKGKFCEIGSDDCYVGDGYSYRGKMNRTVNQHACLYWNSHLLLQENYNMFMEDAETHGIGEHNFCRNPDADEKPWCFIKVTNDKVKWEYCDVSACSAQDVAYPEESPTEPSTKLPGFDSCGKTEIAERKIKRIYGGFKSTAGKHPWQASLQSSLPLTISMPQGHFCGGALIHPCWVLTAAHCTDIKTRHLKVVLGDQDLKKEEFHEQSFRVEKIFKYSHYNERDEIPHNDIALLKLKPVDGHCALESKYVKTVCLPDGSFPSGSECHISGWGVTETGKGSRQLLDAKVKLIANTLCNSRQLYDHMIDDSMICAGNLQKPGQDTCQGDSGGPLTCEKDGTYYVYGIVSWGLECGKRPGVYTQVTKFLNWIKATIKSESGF
T2 sequence (Q14520 314-560 G534E limits assumed): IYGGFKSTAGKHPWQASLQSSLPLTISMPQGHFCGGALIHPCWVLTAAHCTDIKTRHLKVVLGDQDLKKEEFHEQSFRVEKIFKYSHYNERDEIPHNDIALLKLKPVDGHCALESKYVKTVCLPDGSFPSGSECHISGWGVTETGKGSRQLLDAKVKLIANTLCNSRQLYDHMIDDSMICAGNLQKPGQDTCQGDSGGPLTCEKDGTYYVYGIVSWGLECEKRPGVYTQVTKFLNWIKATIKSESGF
T2 sequence (Q14520 24-313 partner limits assumed): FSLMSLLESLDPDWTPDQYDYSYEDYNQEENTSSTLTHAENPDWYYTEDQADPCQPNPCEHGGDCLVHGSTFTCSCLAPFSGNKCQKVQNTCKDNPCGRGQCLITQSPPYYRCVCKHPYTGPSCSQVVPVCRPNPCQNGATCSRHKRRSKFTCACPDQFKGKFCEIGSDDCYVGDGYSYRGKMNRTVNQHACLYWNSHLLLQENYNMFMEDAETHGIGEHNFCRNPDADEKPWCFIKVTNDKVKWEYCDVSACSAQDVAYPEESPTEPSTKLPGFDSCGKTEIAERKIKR

Substance: aprotinin
- vmax aprotinin (FSAP wild type [1]; 0.055 KIU/ml aprotinin, WT plasma samples 1:80, S-2444, one value per sample): 13.82 mOD/min and 12.09 mOD/min and 8.81 mOD/min and 11.84 mOD/min
- inhibition of prourokinase-activating activity of FSAP, non-carrier sample versus heterozygous carrier sample (FSAP wild type [1]; FIGS. 1 and 2, 0.036 and 0.055 KIU/ml final aprotinin concentration): substantially more strongly
- Av. vmax0/vmax aprotinin (FSAP wild type [1]; [7]): 2.01
- Av. vmax0 − vmax aprotinin (FSAP wild type [1]; [7]): 11.37 mOD/min
- vmax0/vmax aprotinin (FSAP wild type [1]; [8]): 1.90 and 1.78 and 2.41 and 1.95
- vmax0 − vmax aprotinin (FSAP wild type [1]; [8]): 12.42 mOD/min and 9.38 mOD/min and 12.44 mOD/min and 11.23 mOD/min
- vmax aprotinin (FSAP MR I variant [2]; 0.055 KIU/ml aprotinin, MR I plasma samples 1:80, S-2444, one value per sample): 2.00 mOD/min and 1.84 mOD/min and 2.45 mOD/min
- Av. vmax0/vmax aprotinin (FSAP MR I variant [2]; [9]): 1.43
- Av. vmax0 − vmax aprotinin (FSAP MR I variant [2]; [9]): 0.90 mOD/min
- vmax0/vmax aprotinin (FSAP MR I variant [2]; [10]): 1.52 and 1.35 and 1.41
- vmax0 − vmax aprotinin (FSAP MR I variant [2]; [10]): 1.04 mOD/min and 0.64 mOD/min and 1.01 mOD/min
- vmax aprotinin (FSAP wild type [3]; 0.055 KIU/ml aprotinin, WT plasma samples 1:50, S-2288, one value per sample): 6.90 mOD/min and 9.57 mOD/min and 7.52 mOD/min
- inhibition of amidolytic activity of FSAP, non-carrier sample versus heterozygous carrier sample (FSAP wild type [3]; FIGS. 3 and 4, 0.036 and 0.055 KIU/ml final aprotinin concentration): considerably more strongly
- Av. vmax0/vmax aprotinin (FSAP wild type [3]; [7]): 1.48
- Av. vmax0 − vmax aprotinin (FSAP wild type [3]; [7]): 3.81 mOD/min
- vmax0/vmax aprotinin (FSAP wild type [3]; [8]): 1.45 and 1.47 and 1.51
- vmax0 − vmax aprotinin (FSAP wild type [3]; [8]): 3.09 mOD/min and 4.49 mOD/min and 3.86 mOD/min
- vmax aprotinin (FSAP MR I variant [4]; 0.055 KIU/ml aprotinin, MR I plasma samples 1:50, S-2288, one value per sample): 1.22 mOD/min and 0.94 mOD/min and 1.87 mOD/min
- Av. vmax0/vmax aprotinin (FSAP MR I variant [4]; [9]): 1.04
- Av. vmax0 − vmax aprotinin (FSAP MR I variant [4]; [9]): 0.07 mOD/min
- vmax0/vmax aprotinin (FSAP MR I variant [4]; [10]): 1.02 and 1.03 and 1.08
- inhibition of FSAP amidolytic activity after addition of aprotinin in a single reaction mixture, non-carrier versus heterozygous carrier (FSAP wild type [5]; FIG. 5, aprotinin added at a reaction time of about one hour): inhibited more strongly in the sample of the non-carrier
- WT/MRI quotient of Av. vmax/vmax A (FSAP wild type [5]; WT sample versus heterozygous MR I sample, aprotinin 2.95 KIU/ml, MAb about 60 μg/ml): 1.35
- WT Av. vmax/vmax A (FSAP wild type [5]; vmax before/after modulator added at about 60 min, aprotinin 2.95 KIU/ml, MAb about 60 μg/ml, three measurements, negative control 0.81): 16.72
- MRI Av. vmax/vmax A (FSAP MR I variant [6]): 12.36
